Measured values: patent US20250270339A1 (Alector, published 2025)

T1: huTfR Apical Domain-Avi-His (human, biotin on the Avi tag (BirA) where captured on streptavidin)
T1 construct: also called huTfR apical Avi-His; hTfR Apical
T1 chain: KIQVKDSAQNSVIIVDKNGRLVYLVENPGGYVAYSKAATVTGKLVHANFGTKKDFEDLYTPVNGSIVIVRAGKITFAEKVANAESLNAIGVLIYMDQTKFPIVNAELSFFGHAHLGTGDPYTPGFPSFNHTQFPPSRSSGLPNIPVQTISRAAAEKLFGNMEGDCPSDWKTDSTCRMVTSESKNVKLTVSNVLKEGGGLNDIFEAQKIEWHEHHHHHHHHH


Legend:
[1] = target: T2, Full length human TfR on CHO cells (human, UniProt P02786 1-760); assay: FACS MFI, supernatant
T2 construct: also called CHO + huTfR; CHO + hTfR
T2 sequence (P02786 whole entry): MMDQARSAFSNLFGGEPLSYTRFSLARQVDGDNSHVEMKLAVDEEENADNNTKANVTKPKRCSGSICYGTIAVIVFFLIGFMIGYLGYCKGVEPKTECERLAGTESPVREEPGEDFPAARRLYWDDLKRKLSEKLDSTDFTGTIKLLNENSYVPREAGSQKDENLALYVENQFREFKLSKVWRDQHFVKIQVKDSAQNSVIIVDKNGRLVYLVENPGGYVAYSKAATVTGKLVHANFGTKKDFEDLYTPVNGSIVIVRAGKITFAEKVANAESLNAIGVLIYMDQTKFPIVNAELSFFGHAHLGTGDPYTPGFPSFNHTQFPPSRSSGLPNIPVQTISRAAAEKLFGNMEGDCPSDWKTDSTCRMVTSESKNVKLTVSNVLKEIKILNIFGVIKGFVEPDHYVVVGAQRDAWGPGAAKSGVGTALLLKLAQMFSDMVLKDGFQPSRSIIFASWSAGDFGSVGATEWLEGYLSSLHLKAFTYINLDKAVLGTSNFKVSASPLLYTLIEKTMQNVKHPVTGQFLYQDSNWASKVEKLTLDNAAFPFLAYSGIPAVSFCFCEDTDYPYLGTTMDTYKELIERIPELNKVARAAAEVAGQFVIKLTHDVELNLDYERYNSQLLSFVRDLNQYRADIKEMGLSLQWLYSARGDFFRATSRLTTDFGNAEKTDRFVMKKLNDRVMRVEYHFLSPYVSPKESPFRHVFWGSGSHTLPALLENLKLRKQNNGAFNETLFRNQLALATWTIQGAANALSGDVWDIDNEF
Description: (§1) A total of 1536 anti-TfR hybridoma supernatants were initially screened for their ability to differentially bind CHO cells overexpressing human or mouse TfR cells compared to CHO parental cells by FACS. Overexpressing cells were harvested, washed and labeled with Pacific Blue, FITC and Pacific Orange dyes (ThermoFisher) to create uniquely barcoded cell populations. Barcoded cells (5×10⁴ of each cell population) were aliquoted into 96-well U-bottom plates and incubated with 50 μl of hybridoma cell culture supernatant or […] of commercially available purified mouse anti-human TfR monoclonal antibody (Sigma Aldrich, Cat #SAB4700515) and rat anti-mouse TfR antibody (Invitrogen, Waltham, MA, Cat #R17217) on ice for 30 minutes. After this primary incubation, the supernatants were removed via centrifugation, the cells were washed twice with 175 μl of ice-cold FACS buffer (PBS+1% FBS+2 mM EDTA), and the cells were then further incubated on ice for 20 minutes with anti-mouse IgG Fc-allophycocyanin (APC) or anti-rat IgG Fc-APC (Jackson Labs, Cat #115-136-071 and Cat #112-136-071, respectively) (diluted 1:1000). Following this secondary antibody incubation, the cells were again washed twice with ice-cold FACS buffer and resuspended in a final volume of 50 μl of FACS buffer. Binding intensity on cells was analyzed using the FACS Canto system (BD Biosciences), and the ratio of APC Mean Fluorescence Intensity (MFI) on each barcoded cell population was determined for each anti-TfR hybridoma supernatant tested.

[2] = target: T3, Full length Mouse TfR on CHO cells (mouse, UniProt Q62351 1-763); assay: FACS MFI, supernatant
T3 construct: also called CHO + muTfR
T3 sequence (Q62351 whole entry): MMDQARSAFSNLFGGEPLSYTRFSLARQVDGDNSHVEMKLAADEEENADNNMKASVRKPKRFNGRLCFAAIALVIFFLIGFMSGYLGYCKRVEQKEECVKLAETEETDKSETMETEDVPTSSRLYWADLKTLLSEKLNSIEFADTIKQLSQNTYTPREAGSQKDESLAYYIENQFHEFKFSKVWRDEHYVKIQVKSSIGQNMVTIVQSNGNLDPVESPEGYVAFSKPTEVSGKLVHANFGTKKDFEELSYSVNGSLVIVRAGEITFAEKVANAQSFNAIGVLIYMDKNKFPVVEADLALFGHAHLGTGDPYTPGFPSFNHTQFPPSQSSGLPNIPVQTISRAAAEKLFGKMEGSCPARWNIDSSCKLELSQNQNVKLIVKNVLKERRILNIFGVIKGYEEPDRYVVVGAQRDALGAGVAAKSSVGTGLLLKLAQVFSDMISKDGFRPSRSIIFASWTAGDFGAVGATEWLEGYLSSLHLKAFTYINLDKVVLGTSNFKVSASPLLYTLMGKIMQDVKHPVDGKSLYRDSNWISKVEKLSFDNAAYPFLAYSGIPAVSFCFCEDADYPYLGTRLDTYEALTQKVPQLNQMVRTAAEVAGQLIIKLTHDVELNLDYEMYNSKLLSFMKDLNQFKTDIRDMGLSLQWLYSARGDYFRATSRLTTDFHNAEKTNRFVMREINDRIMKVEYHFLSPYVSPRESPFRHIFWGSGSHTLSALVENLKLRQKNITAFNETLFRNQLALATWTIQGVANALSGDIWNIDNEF
Description: as §1

[3] = target: T3, Full length Mouse TfR on CHO cells; assay: FACS, CHO+muTfR
Description: as §1

[4] = target: T1, huTfR Apical Domain-Avi-His; assay: ELISA OD450, supernatant
Description: Hybridoma culture supernatants from 319 hybridomas obtained as described above were screened for their ability to bind Avi-His-tagged huTfR ECD, huTfR apical domain, and muTfR ECD (as described in Example 1) as compared to binding to an irrelevant Avi-His-tagged control protein. Briefly, 96-well polystyrene plates were coated with 5 μg/ml of streptavidin (Thermo Fisher, Cat #PI21125) in coating buffer (0.05M carbonate buffer, pH 9.6, Sigma, Cat #C3041) overnight at 4° C. Coated plates were then blocked with ELISA diluent (PBS+0.5% BSA+0.05% Tween20) for one hour. Blocking buffer was removed and Avi-His-tagged human TfR, human TfR apical domain, mouse TfR and an irrelevant Avi-His-tagged protein were added at 1 μg/ml in ELISA diluent and captured for 1 hour at room temperature. After washing three times with 300 μl of PBST (PBS+0.05% Tween20, Thermo 28352), the hybridoma cell culture supernatants were added (50 μl/well) to each well. After 30 minutes of incubation at room temperature, the plates were washed three times with 300 μl of PBST. Anti-mouse IgG Fc-HRP or anti-rat IgG Fc-HRP (Jackson Immunoresearch, Cat #115-035-071 and 112-036-071, respectively) secondary antibodies were diluted 1:5000 in ELISA diluent, added to each well at 50 μl/well, and incubated for 30 minutes at room temperature with shaking. After a final set of washes (3×300 μl in PBST), 50 μl/well of BioFx TMB substrate (Surmodics, Cat #TMBW-1000-01) was added to the wells. The reaction was then quenched after 5-10 mins with 50 μl/well of 2N sulfuric acid. The plates were read for absorbance at 450 nm on a SpectraMax M5 (Molecular Devices, Sunnyvale, CA) using SoftMax Pro software.

Binder	fold over parental (CHO WT) [1]	fold over parental (CHO WT) [2]	binding result [3]	ratio over irrelevant protein [4]
TfR16 (mouse hybridoma antibody) (antibody, V domains shown, mouse IgG in hybridoma supernatant) VH: EVQLQQSGTVLARPGASVKMSCKTSGYSFSSYWMHWVKQRPGQGLEWIGTIYPGNSDTIYNQNFKGKAKLTAVTSASTAYMELSSLTNEDSAVYYCSTIYYFSNWGQGTTLTVSS VL: DIKMTQSPSPMFASLGERVTITCKASQDINSYLSWFQQKPGKSPKTLIYRANRLLDGVPSRFSGSGSGQDYSLTISSLDYEDVGIYYCLQYDVFPYTFGGGTKLEIK	534 fold	1 fold	no binding	18 fold
TfR13 (mouse hybridoma antibody) (antibody, V domains shown, mouse IgG in hybridoma supernatant) VH: DVKLVESGGGLVKPGGSLKLSCAASGFTFSSYTMSWVRQTPEKRLEWVATISSGGSYTYFPDSVKGRFTISRDNAKNTLYLQMSSLKSEDTAIYYCTRAHYYAYDYWGQGTTLTVSS VL: DILLTQSPAILSVSPGERVSFSCRASQSIGTSIHWYQQRTNGSPRLLIKYASGSISGIPSRFSGSGSGTDFTLSINSVESEDIADYYCQQSNSWPTSTFGAGTKLELK	392 fold	1 fold	no binding	22 fold
TfR15 (mouse hybridoma antibody) (antibody, V domains shown, mouse IgG in hybridoma supernatant) VH: QVQLQQPGSELVRPGASVKLSCKASGYTFTSYWMHWVKQRPGQGLEWIGNIYPGSGSSNYDEKFKSKATLTVDTSSSTAYMQLNSLTSEDSAVYYCTRSSYYGNFDTMDNWGQGTSVTVSS VL: QIVLTQSPAIMSASPGEKVTMTCSASSSIRYMNWYQQKPVTSPKRWIYDTSTLASGVPARFSGSGSGTSYSLTISSMEAEDAATYYCHQRSSYPWTFGGGTKLEIK	119 fold	1 fold	no binding	34 fold
TfR22 (mouse hybridoma antibody) (antibody, V domains shown, mouse IgG in hybridoma supernatant) VH: DVQLQESGPGLVKPSQSLSLTCTVTGYSITSDYAWNWIRQFPGNKLEWMGYISYSGSTRYNPSLKSRISITRDTSKNQFFLQLNSVTTEDTATYYCTSWGYRYLEDYWGQGTSVTVSA VL: QIVLTQSPAIMSASPGERVTMTCSASSSISSMHWYQQKPGTSPKKWIYDTSKLASGVPARFSGSGSGTSYSLTISSMEAEDAATYYCHQRSSYPWTFGGGTKLEIK	290 fold	1 fold	no binding	33 fold
TfR27 (mouse hybridoma antibody) (antibody, V domains shown, mouse IgG in hybridoma supernatant) VH: QVQLQQPGSELVRPGASVKLSCKASGYTFTSYWMHWVKQRPGQGLEWIGNIYPGTGSTNYDEKFKSKATLTVDTSSSTAYMQLSSLTSEDSAVYYCTRSSYYGNFDTMDYWGQGTSVTVSS VL: QIFLTQSPAIMSASPGERVTMTCSASSSIRYMNWYQQKPGTSPKRWIYDTSELASGVPARFTGSGSGTSYSLTISSMEAEDAATYYCHQRSGYPWTFGGGTKLEIK	279 fold	1 fold	no binding	34 fold
TfR31 (mouse hybridoma antibody) (antibody, V domains shown, mouse IgG in hybridoma supernatant) VH: DVQLQESGPGLVKPSQSLSLTCTVTGYSITSDYAWNWIRQFPGNKLEWMGYISYSGRTSYNPSLKSRISFTRDTSKNQFFLQLNSVTTEDTATYYCAGWGYRYLEDYWGQGTSVTVSS VL: QIVLTQSPAIMSASPGEKVTMTCSASSSISSMHWYQLKPGTSPKKWIYDTSKLASGVPARFSGSGSGTSYSLTISSMEAEDAATYYCHQRSSYPWTFGGGTKLEIK	90 fold	1 fold	no binding	20 fold
TfR23 (mouse hybridoma antibody) (antibody, V domains shown, mouse IgG in hybridoma supernatant) VH: DVQLQESGPGLVKPSQSLSLTCTVTGYSITSDYAWNWIRQFPGNKLEWMGYISYSGSTSYNPSLKSRISITRDTSKNQFFLQLNSVTTEDTATYYCTSWGYRYLEDYWGQGTSVTVSS VL: QIVLTQSPAIMSASPGERVTMTCSASSSISSLHWYQQKPGTSPKKWIYDTSKLASGVPARFSGSGSGTSYSLAISSMEAEDAATYYCHQRSSYPWTFGGGTKLEIK	279 fold	1 fold	no binding	31 fold

Other lines, results leading:

fold over parental (CHO WT) [1]	fold over parental (CHO WT) [2]	binding result [3]	ratio over irrelevant protein [4]	Binder
290 fold	1 fold	no binding	39 fold	TfR11 (mouse hybridoma antibody) (antibody, V domains shown, mouse IgG in hybridoma supernatant) VH: EVQLQQSGTVLARPGASVKMSCKASGYSFTSYWMHWVKQRPGQGLEWIGAIFPGNIDTIYNQKFKDKAKLTAVTSASTAYMELSSLTNEDSAVYFCTRLYYDYVWGAGTTVTVSS VL: DIKMTQSPSSMYASLGERVTLTCKASQDINSYLSWFQQKPGKSPKTLIYHVNRLVDGVPSRFSGSGSGQDYSLTISSLEYEDMGIYYCLQYDEFPYTFGGGTKLEIK
157 fold	1 fold	no binding	30 fold	TfR28 (mouse hybridoma antibody) (antibody, V domains shown, mouse IgG in hybridoma supernatant) VH: DVQLQESGPGLVKPSQSLSLTCTVTGYSITSDYAWNWIRQFPGNKLEWMGYISYSGSTSYNPSLRSRISITRDTSKNQFFLQLNSVTTEDTATYYCAIRGYRYEEDYWGQGTTLTVSS VL: QIVLTQSPAIMSASPREKVTMTCSASSSISSMHWYQQKPGTSPKRWIYDTSKLASGVPARFSGSGSGTSYSLTISSMEAEDAATYYCHQRSSYPWTFGGGTKLEIK
73 fold	1 fold	no binding	26 fold	TfR17 (mouse hybridoma antibody) (antibody, V domains shown, mouse IgG in hybridoma supernatant) VH: DVQLQESGPGLVKPSQSLSLTCTVTGYSITSDYAWNWIRQFPGNKLEWMGYISYSGSTSYNPSLKSRISITRDTSKNQFFLQLNSVTTEDTATYYCASWGYRYLEDYWGQGTSVTVSS VL: QIVLTQSPAIMSASPGEKVTMTCSASSSISSMHWYQQKPGTSPKRWISDTSKLASGIPARFSGSGSGTSYSLTISSMAAEDAAAYYCHQRSSYPWTFGGGTKLEIK
135 fold	1 fold	no binding	33 fold	TfR25 (mouse hybridoma antibody) (antibody, V domains shown, mouse IgG in hybridoma supernatant) VH: QVQLQQSGPELVKPGTSVKMSCKASGYTFTNYYIHWMKQRPGQGLEWIGWIYPGDGNTHYNERFKGKTTLTADKSSSTVYMFLTSLTSEDSAIYFCAKDKDMPGMDYWGQGTSVTVSS VL: DMVMTQSPSSLTVTAGEKVTMSCKSSQSLFNSENQKNYLTWYQQKPGQPPKLLISWASTRESGVPDRFTGSGSGTDFTLTINSVQAEDLAVYYCQNDYSYPLTFGAGTKLELK
285 fold	1 fold	no binding	35 fold	TfR26 (mouse hybridoma antibody) (antibody, V domains shown, mouse IgG in hybridoma supernatant) VH: QVQLHQSGPELVKPGASVKMSCKASGYTFTNYYIHWVKQRPGQGLEWIGWIYPGDGVTHYNEKFKGKTTLTADKSSSTAYMLLSSLTSEDSAIYFCARDKDVPGMDYWGQGTSVTVSS VL: DIVMTQSPSSLTVTSGEKVTMSCKSSQSLLNSENQKNYLTWYQQKPGQPPKLLIYWASTRESGVPDRFTGSGSGPDFTLTISSVQAEDLAVYYCQNDYSYPLTFGAGTKLELK
